Results on one molecule are retold here after publication PMC5014518.

The series addresses T1, 2x-p19-TAT (Carnation Italian Ringspot Virus, UniProt Q66104 1-172).
T1 sequence: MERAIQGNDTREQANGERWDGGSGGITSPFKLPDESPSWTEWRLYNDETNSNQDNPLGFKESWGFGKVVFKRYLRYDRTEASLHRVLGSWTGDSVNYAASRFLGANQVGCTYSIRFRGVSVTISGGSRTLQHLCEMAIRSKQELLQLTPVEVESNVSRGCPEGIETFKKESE
In words: EMSA. In general terms: Mobility shift assays separate free from complexed probe on a gel.

B1: Cy3-CSK siRNA (dsRNA)
RNA 1: CUACCGCAUCAUGUACCAUTT
RNA 2: AUGGUACAUGAUGCGGUAGTT
modifications: 3' dTdT on both strands (DNA residues written TT)
Consider B1, for which the Kd (as a rule, a measure of binding affinity in units of concentration) stood at 0.44 ± 0.16 nM.
